The results in this text go back to US20230203131A1 (OSAKA UNIVERSITY, published 2023).

In experiment [1] the target is Perlecan-fused Chimera-511 (Chimera-511P), not treated with thrombin (human) (UniProt P02675). Nature of the experiment: solid-phase integrin binding assay (ELISA): Chimera-511P coated, α6β1 integrin titrated, as in Example 1 (5).
Experiment [2] addresses T1, α6β1 integrin (UniProt P23229 24-1011; P05556 21-728).
T1 construct: Soluble protein added to plates and detected with a biotin-labeled Velcro antibody
In words: solid-phase integrin binding assay (ELISA): LM511E8 coated at 10 nM, α6β1 integrin titrated 0.001-100 nM in 1 mM MnCl2. Here is the method:
(§1) The plates were incubated with gentle agitation at 4° C. overnight for coating.
(§2) Integrin binding assay was performed according to the method of Ido et al. (Hiroyuki Ido et al. J. Biol. Chem., 282, 11144-11154, 2007). The specific procedure was as follows. […] Next, TBST supplemented with 1% BSA was added at 200 μL/well, and the plates were incubated with agitation on a shaker (B. Braun Biotech International CERTOMAT MT) at room temperature for 1 hour for blocking. The plates were washed once with 200 μL/well of 0.1% BSA/TBST. α6β1 integrin was diluted to final concentrations of 0.001 nM, 0.003 nM, 0.01 nM, 0.03 nM, 0.1 nM, 0.3 nM, 1 nM, 3 nM, 10 nM, 30 nM, and 100 nM in 0.1% BSA/TBST containing 1 mM MnCl₂ or 10 mM EDTA. The diluted α6β1 integrin solutions were added to the plates at 50 μL/well and allowed to react with agitation using the shaker at room temperature for 3 hours.
(§3) After the reaction, the plates were washed three times with 200 μL/well of 1 mM MnCl₂/0.1% BSA/TBST or 10 mM EDTA/0.1% BSA/TBST. A 1.5 μg/mL solution of a biotin-labeled Velcro antibody (prepared as described in Takagi, J., Erickson, H. P. and Springer, T. A. (2001) Nat. Struct. Biol. 8, 412-416) in 1 mM MnCl₂/0.1% BSA/TBST was added at 50 μL/well and allowed to react with agitation using the shaker at room temperature for 30 minutes. […]

Experiment [3] addresses T1, α6β1 integrin. Nature of the experiment: solid-phase integrin binding assay (ELISA): Chimera-511 coated at 10 nM, α6β1 integrin titrated 0.001-100 nM in 1 mM MnCl2. Here is the method:
as §1, §2, §3

T1 sequence (P23229 other isoform, or with tags, fused parts or gaps, chain 1 of 2): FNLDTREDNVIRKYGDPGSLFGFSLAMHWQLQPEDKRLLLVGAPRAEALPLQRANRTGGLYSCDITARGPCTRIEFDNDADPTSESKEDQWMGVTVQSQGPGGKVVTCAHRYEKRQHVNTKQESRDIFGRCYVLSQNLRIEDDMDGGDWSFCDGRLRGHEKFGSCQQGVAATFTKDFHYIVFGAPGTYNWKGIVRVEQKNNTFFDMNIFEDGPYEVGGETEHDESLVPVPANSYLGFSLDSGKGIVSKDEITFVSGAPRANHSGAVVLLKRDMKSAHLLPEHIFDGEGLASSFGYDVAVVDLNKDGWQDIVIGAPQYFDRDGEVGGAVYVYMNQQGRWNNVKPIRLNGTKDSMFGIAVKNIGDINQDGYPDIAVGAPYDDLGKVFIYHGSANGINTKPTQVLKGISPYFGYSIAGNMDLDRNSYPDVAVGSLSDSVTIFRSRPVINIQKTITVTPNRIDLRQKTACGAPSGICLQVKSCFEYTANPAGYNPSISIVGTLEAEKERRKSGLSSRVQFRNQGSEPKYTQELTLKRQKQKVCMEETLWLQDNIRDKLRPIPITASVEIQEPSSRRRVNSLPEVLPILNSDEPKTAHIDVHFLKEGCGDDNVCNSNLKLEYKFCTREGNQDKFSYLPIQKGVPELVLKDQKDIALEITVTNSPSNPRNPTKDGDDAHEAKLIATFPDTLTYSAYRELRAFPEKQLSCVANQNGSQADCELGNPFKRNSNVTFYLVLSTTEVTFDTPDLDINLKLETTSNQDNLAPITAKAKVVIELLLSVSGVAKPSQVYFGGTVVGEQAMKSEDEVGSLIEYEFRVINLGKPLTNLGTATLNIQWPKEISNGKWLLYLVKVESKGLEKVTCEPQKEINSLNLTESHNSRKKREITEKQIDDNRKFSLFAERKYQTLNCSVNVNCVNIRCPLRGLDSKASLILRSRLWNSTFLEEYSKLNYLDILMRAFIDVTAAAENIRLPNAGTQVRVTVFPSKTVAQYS
T1 sequence (P05556 21-728, chain 2 of 2): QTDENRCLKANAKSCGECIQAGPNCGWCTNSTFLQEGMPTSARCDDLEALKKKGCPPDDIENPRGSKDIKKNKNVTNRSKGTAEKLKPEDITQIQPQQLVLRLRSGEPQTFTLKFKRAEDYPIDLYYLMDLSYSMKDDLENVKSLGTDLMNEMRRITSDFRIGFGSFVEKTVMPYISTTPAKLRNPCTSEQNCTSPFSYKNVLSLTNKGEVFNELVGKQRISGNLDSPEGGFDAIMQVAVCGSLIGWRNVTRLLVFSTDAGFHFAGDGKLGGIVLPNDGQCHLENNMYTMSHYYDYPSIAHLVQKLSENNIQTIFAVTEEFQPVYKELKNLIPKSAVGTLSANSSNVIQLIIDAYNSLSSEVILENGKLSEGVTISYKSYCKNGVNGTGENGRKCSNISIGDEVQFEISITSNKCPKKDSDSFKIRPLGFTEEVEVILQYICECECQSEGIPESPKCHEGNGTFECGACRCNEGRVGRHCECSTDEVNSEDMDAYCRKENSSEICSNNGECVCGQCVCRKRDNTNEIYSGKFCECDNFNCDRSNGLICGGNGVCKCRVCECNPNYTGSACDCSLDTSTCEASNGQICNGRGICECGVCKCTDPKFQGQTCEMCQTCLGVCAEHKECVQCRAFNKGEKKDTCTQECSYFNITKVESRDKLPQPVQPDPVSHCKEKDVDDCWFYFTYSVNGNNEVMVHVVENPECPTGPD

The term Kd denotes the constant that tells how readily two partners part at equilibrium. Higher therefore signals a looser complex. In experiment [1], “α6β1 integrin (from UniProt P23229 24-1011; P05556 21-728) (receptor)” yielded a Kd of 0.9 nM.

B1: Human laminin 511E8 fragment (human laminin α5β1γ1E8) (other)
chain 1: HHHHHHAAEDAAGQALQQADHTWATVVRQGLVDRAQQLLANSTALEEAMLQEQQRLGLVWAALQGARTQLRDVRAKKDQLEAHIQAAQAMLAMDTDETSKKIAHAKAVAAEAQDTATRVQSQLQAMQENVERWQGQYEGLRGQDLGQAVLDAGHSVSTLEKTLPQLLAKLSILENRGVHNASLALSASIGRVRELIAQARGAASKVKVPMKFNGRSGVQLRTPRDLADLAAYTALKFYLQGPEPEPGQGTEDRFVMYMGSRQATGDYMGVSLRDKKVHWVYQLGEAGPAVLSIDEDIGEQFAAVSLDRTLQFGHMSVTVERQMIQETKGDTVAPGAEGLLNLRPDDFVFYVGGYPSTFTPPPLLRFPGYRGCIEMDTLNEEVVSLYNFERTFQLDTAVDRPCARSKSTGDPWLTDGSYLDGTGFARISFDSQISTTKRFEQELRLVSYSGVLFFLKQQSQFLCLAVQEGSLVLLYDFGAGLKKAVPLQPPPPLTSASKAIQVFLLGGSRKRVLVRVERATVYSVEQDNDLELADAYYLGGVPPDQLPPSLRRLFPTGGSVRGCVKGIKALGKYVDLKRLNTTGVSAGCTADLLVGRAMTFHGHGFLRLALSNVAPLTGNVYSGFGFHSAQDSALLYYRASPDGLCQVSLQQGRVSLQLLRTEVKTQAGFADGAPHYVAFYSNATGVWLYVDDQLQQMKPHRGPPPELQPQPEGPPRLLLGGLPESGTIYNFSGCISNVFVQRLLGPQRVFDLQQNLGSVNVSTGCAPALQAQTPGLGPRGLQATARKASRRSRQPARHPA
chain 2: LQHSAADIARAEMLLEEAKRASKSATDVKVTADMVKEALEEAEKAQVAAEKAIKQADEDIQGTQNLLTSIESETAASEETLFNASQRISELERNVEELKRKAAQNSGEAEYIEKVVYTVKQSAEDVKKTLDGELDEKYKKVENLIAKKTEESADARRKAEMLQNEAKTLLAQANSKLQLLKDLERKYEDNQRYLEDKAQELARLEGEVRSLLKDISQKVAVYSTCL
chain 3: EANDILNNLKDFDRRVNDNKTAAEEALRKIPAINQTITEANEKTREAQQALGSAAADATEAKNKAHEAERIASAVQKNATSTKAEAERTFAEVTDLDNEVNNMLKQLQEAEKELKRKQDDADQDMMMAGMASQAAQEAEINARKAKNSVTSLLSIINDLLEQLGQLDTVDLNKLNEIEGTLNKAKDEMKVSDLDRKVSDLENEAKKQEAAIMDYNRDIEEIMKDIRNLEDIRKTLPSGCFNTPSIEKP
notes: range 2534-3327;range 1561-1786;range 1362-1609; Heterotrimer of α5E8, β1E8 and γ1E8, expressed in 293-F cells; also called LM511E8; LM511 E8; not shown: HA tag, N-terminal; FLAG tag, N-terminal
On to B1, for which binding in experiment [2] was put at a Kd of 0.59 nM.

B2: Chimera-511 (chimeric protein having human fibrinogen fused to an integrin-binding domain of human laminin 511), not treated with thrombin (other)
chain 1: QGVNDNEEGFFSARGHRPLDKKREEAPSLRPAPPPISGGGYRARPAKAAATQKKVERKAPDAGGCLHADPDLGVLCPTGCQLQEALLQQERPIRNSVDELNNNVEAVSQTSSSSFQYMYLLKDLWQKRQKQVKDNENVVNEYSSELEKHQLYIDETVNSNIPTNIGRVRELIAQARGAASKVKVPMKFNGRSGVQLRTPRDLADLAAYTALKFYLQGPEPEPGQGTEDRFVMYMGSRQATGDYMGVSLRDKKVHWVYQLGEAGPAVLSIDEDIGEQFAAVSLDRTLQFGHMSVTVERQMIQETKGDTVAPGAEGLLNLRPDDFVFYVGGYPSTFTPPPLLRFPGYRGCIEMDTLNEEVVSLYNFERTFQLDTAVDRPCARSKSTGDPWLTDGSYLDGTGFARISFDSQISTTKRFEQELRLVSYSGVLFFLKQQSQFLCLAVQEGSLVLLYDFGAGLKKAVPLQPPPPLTSASKAIQVFLLGGSRKRVLVRVERATVYSVEQDNDLELADAYYLGGVPPDQLPPSLRRLFPTGGSVRGCVKGIKALGKYVDLKRLNTTGVSAGCTADLLVGRAMTFHGHGFLRLALSNVAPLTGNVYSGFGFHSAQDSALLYYRASPDGLCQVSLQQGRVSLQLLRTEVKTQAGFADGAPHYVAFYSNATGVWLYVDDQLQQMKPHRGPPPELQPQPEGPPRLLLGGLPESGTIYNFSGCISNVFVQRLLGPQRVFDLQQNLGSVNVSTGCAPALQAQTPGLGPRGLQAHHHHHHHHHH
chain 2: ADSGEGDFLAEGGGVRGPRVVERHQSACKDSDWPFCSDEDWNYKCPSGCRMKGLIDEVNQDFTNRINKLKNSLFEYQKNNKDSHSLTTNIMEILRGDFSSANNRDNTYNRVSEDLRSRIEVLKRKVIEKVQHLARLEGEVRSLLKDISQKVAVYSTCL
chain 3: YVATRDNCCILDERFGSYCPTTCGIADFLSTYQTKVDKDLQSLEDILHQVENKTSEVKQLIKAIQLTYNPDESSKPNMIDAATLKSRKMLEEIMKYEASILTHDSSIEEIMKDIRNLEDIRKTLPSGCFNTPSIEKP
notes: range 31-194;range 2716-3310;range 20-151;range 1761-1786;range 27-132;range 1579-1609; Chains in order: Chimera-α5, Chimera-β1, Chimera-γ1; also called Combination-3
With B2, the Kd in experiment [3] is 0.58 nM.
